Laboratory results from US20110047631A1, “HEAT SHOCK PROTEIN DEFICIENCIES AS MODEL SYSTEMS FOR BRAIN PATHOLOGY AND CANCER” (Medical College of Georgia Research Institute Inc., priority 2009, published 2011).

Biological target: tau (total tau), endogenous mouse protein in brain extracts (mouse) (UniProt P10637)
Assay: immunoprecipitation with antibody to total tau, immunoblot for Chip; 8 months old against 6 weeks old mice

Sequence of tau (total tau), endogenous mouse protein in brain extracts (mouse) (P10637 other isoform, or with tags, fused parts or gaps limits assumed): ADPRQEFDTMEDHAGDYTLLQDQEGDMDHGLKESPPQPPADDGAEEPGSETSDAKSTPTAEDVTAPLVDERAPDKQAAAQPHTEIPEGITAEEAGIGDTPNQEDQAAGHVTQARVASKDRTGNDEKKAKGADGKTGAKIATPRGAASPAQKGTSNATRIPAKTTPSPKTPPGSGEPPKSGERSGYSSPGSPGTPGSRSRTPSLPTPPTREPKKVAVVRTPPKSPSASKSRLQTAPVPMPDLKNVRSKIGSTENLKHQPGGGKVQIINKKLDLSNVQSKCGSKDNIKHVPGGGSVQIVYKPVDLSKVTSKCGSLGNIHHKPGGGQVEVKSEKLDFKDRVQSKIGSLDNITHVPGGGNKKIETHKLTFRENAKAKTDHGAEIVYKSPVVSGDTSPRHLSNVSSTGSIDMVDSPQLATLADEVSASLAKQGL

Work on “Chip (C-terminal Hsp70-interacting protein) ubiquitin ligase, endogenous mouse protein in brain extracts (from UniProt Q9WUD1 1-304) (enzyme)” yielded a fold amount of Chip co-immunoprecipitated with tau in aged brain extracts of 2 fold.
